± gives the uncertainty stated by the source.

The nature of this data set: amyloid nucleation score (Sup35N fusion, yeast selection) (log enrichment); library NNK3; higher = more nucleation; inactive = no reads after selection. In a few lines: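 After 24 hours of induction with 100 μM copper sulfate, psi-negative yeast expressing peptides of 20 random codons fused to Sup35N were grown for 7 days at 30°C on medium lacking adenine and uracil. Input and output plasmid inserts were sequenced with Illumina, and sequences with under 100 input reads were discarded. Scores for nucleation are the DiMSum log enrichment of output over input reads, centred on the mode score of non-aggregating sequences.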
Consider IIPKRLDVR, for which the amyloid nucleation score was -0.397 ± 0.7. In the case of IISHKQRSRVIVCSGS, the amyloid nucleation score entry was “inactive”. Take IISMVCED: the amyloid nucleation score is 0.297 ± 0.32. With IISSSL, the amyloid nucleation score result is “inactive”. To IIVLPEKRPR belongs “inactive”. In turn, IKAVSYTVSVSPPCFSSKSH gave an amyloid nucleation score of 0.402 ± 0.18.

Regarding IKCDLRSSVAWDLSVILYSF, the amyloid nucleation score result is “inactive”. For IKDGFQGNVFFAVDCFVAYD, the amyloid nucleation score entry is “inactive”. In the case of IKGIPKSIGSSSLGLHNHTV, the amyloid nucleation score entry is “inactive”.

Consider IKKQYINSFIDSATMKGIKV, for which the amyloid nucleation score result is “inactive”. As for IKNEQSARRGASSCGGTADK, the amyloid nucleation score result was “inactive”. To IKWEQRLVVYIAYKKHRWQR belongs “inactive”; to ILAHAHYVYVALARWPTYGY, -0.35 ± 0.98. Regarding ILCANGYRSVFSYFLFGCAY, the amyloid nucleation score result was “inactive”.

In turn, ILCCTCYLRDIDMVVGACDG showed an amyloid nucleation score of 1.62 ± 0.063. Consider ILDFDFTSLPNMMRGCRSHL, for which the amyloid nucleation score result is “inactive”. In the case of ILFNENITKMSLFNCDKFIC, the amyloid nucleation score came out at 1.1 ± 0.15. ILGFLCPLFSFFFSGGYFLG: the amyloid nucleation score entry was “inactive”.

As to ILGIIMI, the amyloid nucleation score result is “inactive”. For ILGIRYVIRINFLTRVRIHN, the amyloid nucleation score entry was “inactive”. Regarding ILHHTWYMF, the amyloid nucleation score result was “inactive”.

ILIGPSGFMYLDVSFFQFQR: the amyloid nucleation score was found to be 0.856 ± 0.25. On to ILILFYLRFHNIRRYTCTFR, for which the amyloid nucleation score entry was “inactive”. Take ILILS: the amyloid nucleation score entry is “inactive”. ILLALN had an amyloid nucleation score of 0.03 ± 0.88. In turn, ILLGIEAPCVSITYYFKTFL yielded an amyloid nucleation score of 1.32 ± 0.13. For the substance ILLSVSWGAR, the amyloid nucleation score came to 1.49 ± 0.13. As to ILMPKTVVTVYISNMCDYSQ, the amyloid nucleation score came out at 2.58 ± 0.071. For the substance ILPPNWATSRVNAAGWFLGQ, the amyloid nucleation score entry was “inactive”. ILPSYDLFEVVWLVRAD: the amyloid nucleation score entry is “inactive”. ILPTAKKSKCGSHL: the amyloid nucleation score result is “inactive”. On to ILRFGHPWDRRSK, for which the amyloid nucleation score entry was “inactive”. To ILRPPKAA belongs “inactive”; to ILSIHSGFCWWMRGALNGKL, 1.45 ± 0.14; to ILSSGLGKHTGLIIAYESAR, “inactive”. Consider ILVAGTAV, for which the amyloid nucleation score result was “inactive”.

Turning to ILVLTKRVCYGSLFRYAWAK, the amyloid nucleation score entry is “inactive”.

On to ILVVGALDLLCGVLTEYSCQ, for which the amyloid nucleation score turned out to be 1.1 ± 0.1. Take ILWMVSMLRYIIEG: the amyloid nucleation score result is “inactive”. ILWSILVYLTLITVLCLCHF had an amyloid nucleation score of 0.444 ± 0.26. As for ILYLRVYITFVLIGNLEGFR, the amyloid nucleation score entry was “inactive”. With ILYSSYS, the amyloid nucleation score entry is “inactive”. Consider ILYWVYCSYSSNHDLYLFII, for which the amyloid nucleation score result was “inactive”. Turning to IMGALLTYSRTTGRVNYRMW, the amyloid nucleation score result is “inactive”. IMICILHLC: the amyloid nucleation score entry was “inactive”. Then IMIGKVLFFGVATRMSVLRL, with “inactive”; and IMLLVGAWTVSYNSCGSDAR, with “inactive”; and IMQFGDFYIIQRERRSYVLW, with 2.25 ± 0.087. Take IMSSVVYECFKVLRHSVMSG: the amyloid nucleation score result was “inactive”. With IMVRSIISGFRLMESRKLDS, the amyloid nucleation score entry is “inactive”. For the substance INEWFGSKDFAETGHLEVRY, the amyloid nucleation score result was “inactive”. Consider INGSNNATCWVSLSIMKARI, for which the amyloid nucleation score result was “inactive”. Turning to INIYSKELSNDGFSTLHYFM, the amyloid nucleation score result is “inactive”.

INLGMP registered an amyloid nucleation score of -0.279 ± 0.52. As for INLHFDITDWANNDLENKGH, the amyloid nucleation score entry is “inactive”.

Substance INLLVSVKGWYYVAPTAWYE yielded an amyloid nucleation score of 1.16 ± 0.15. Then INLVNTLFTIILMRSYRRTR, with 0.022 ± 0.31.

For INTGMASGSSGTYVSAGIEA, the amyloid nucleation score result is “inactive”. For INVPLALLSYGV, the amyloid nucleation score entry was “inactive”. For INVSLGHAGEGWVWLALHLR, the amyloid nucleation score result is “inactive”. Consider INYYFWTSGK, for which the amyloid nucleation score worked out at 0.731 ± 0.3. For IPERMRWVWEVTRAYNNYAW, the amyloid nucleation score entry was “inactive”. Regarding IPFGLANSRFNVFASVMSDC, the amyloid nucleation score result is “inactive”. As for IPFRLFQNDSEKMSWSCDVT, the amyloid nucleation score entry was “inactive”. On to IPIVRTLNLLASTLTPLCR, for which the amyloid nucleation score entry was “inactive”. As to IPRVAWQSYILTSQ, the amyloid nucleation score entry was “inactive”. Take IPSNHSINRCYLDIWAQFLG: the amyloid nucleation score entry is “inactive”.

As to IQPCFIGIGVGYSRFVGRFF, the amyloid nucleation score was found to be 0.982 ± 0.22.

In the case of IQYRGYGYMNSIWYGVERFF, the amyloid nucleation score was 0.626 ± 0.28.

For the substance IRASFEPWVLVRVFYSLCYG, the amyloid nucleation score result is “inactive”.

IRCMSLYLHNGGVYRS: the amyloid nucleation score is 1.72 ± 0.069. To IRERGLYEMNPYWCRGRKSM belongs “inactive”; to IRGASYPSATNRHAAMLVWM, “inactive”; to IRHRTIWSYGSFY, “inactive”. On to IRLKQQDFEGSGKLFNGGHL, for which the amyloid nucleation score result was “inactive”. For IRLTVWDVNRDCR, the amyloid nucleation score entry is “inactive”. For the substance IRLYFQYFLLSG, the amyloid nucleation score came to 2.35 ± 0.063. As for IRRCPGMKVCWLYLKC, the amyloid nucleation score result was “inactive”. Turning to IRSCIIRSFTYMLGLH, the amyloid nucleation score result is “inactive”. For IRSDTVSTARPGNLTNC, the amyloid nucleation score result was “inactive”. Take IRSMGRPTRKLCEPGFSALE: the amyloid nucleation score result was “inactive”. As to IRVSN, the amyloid nucleation score result was “inactive”. Take IRYCGHIRTGCFRLISDLF: the amyloid nucleation score result is “inactive”. With IRYYFRHLG, the amyloid nucleation score was -0.203 ± 0.36. Consider ISAGNTRSTYRLGSWDTSRE, for which the amyloid nucleation score entry is “inactive”. As for ISCGYSYGTRRFS, the amyloid nucleation score entry is “inactive”. In turn, ISCRMYLCCQVLTSSCTWSH returned an amyloid nucleation score of 1.34 ± 0.11. In the case of ISDLTHFRYRDVPNLLVRTK, the amyloid nucleation score result was “inactive”. Turning to ISEVLLCAFVVYIMRKR, the amyloid nucleation score came to 0.953 ± 0.11. As for ISGEQRYSKCRT, the amyloid nucleation score result was “inactive”. Regarding ISGIHITSELRRGTPERCSH, the amyloid nucleation score entry is “inactive”. ISGTFACQNSTFFSGYREAI: the amyloid nucleation score entry is “inactive”. With ISINLIVRCRRLHTPHLPVK, the amyloid nucleation score entry is “inactive”. To ISLFGIMWIRLLHLRHESKA belongs “inactive”; to ISLGCLYLFCYVTGCICSVG, 1.49 ± 0.094; to ISMDRYHNTRHSVNRILLTC, “inactive”.

On to ISPCVPKSAWSIFRIAI, for which the amyloid nucleation score entry was “inactive”. On to ISRDGVRCEVWMWPWPREPA, for which the amyloid nucleation score entry is “inactive”.

As to ISSYFNMCDLCVDVRHTYRR, the amyloid nucleation score entry is “inactive”. To ISTVFLVISSAGTCPSHDKE belongs 1.32 ± 0.095; to ISVRFLCNYCRRVYIRRCAV, “inactive”. To ISWTYVRYYGHKKCCLFYHF belongs “inactive”. Take ISWWAMCACSARKVRF: the amyloid nucleation score entry is “inactive”. ITDYMIQF: the amyloid nucleation score is -0.66 ± 0.7. Regarding ITGGTPCGITTVWQKGAMG, the amyloid nucleation score entry was “inactive”. Consider ITGMVPWSSLESSRPGSLKR, for which the amyloid nucleation score entry was “inactive”.

As for ITMCIIHHRHLMATSFM, the amyloid nucleation score worked out at 0.752 ± 0.18. To ITMCRDFLLAPWPCLLQPSH belongs “inactive”. Substance ITNIFFFHSTLLRSCRASGN registered an amyloid nucleation score of 2.47 ± 0.063. Substance ITNVRSVRFLYSSTYYHIVL registered an amyloid nucleation score of 1.83 ± 0.11. Regarding ITSEIMAIWFDICKAWDLCV, the amyloid nucleation score result was “inactive”. As to ITTFVVMCDLVVLVC, the amyloid nucleation score result is “inactive”. In the case of ITVELTCGSGYYGTMTENQV, the amyloid nucleation score entry was “inactive”.

Regarding IVAGVMADNDIRQDCAWKFK, the amyloid nucleation score amounted to 1.34 ± 0.12. IVDHNIMI yielded an amyloid nucleation score of 0.718 ± 0.3. The substance IVIYLSHDKNLIQVRSSCEG had an amyloid nucleation score of 2.59 ± 0.056.

Substance IVLNKSILYADTCPLFPTMR gave an amyloid nucleation score of 0.655 ± 0.11.

Regarding IVRDFLAGPIKHSTFEVIDF, the amyloid nucleation score entry was “inactive”. In the case of IVRFNSLHYFWETDKTI, the amyloid nucleation score result was “inactive”. With IVRWGSQSGVYRMPIEAWKW, the amyloid nucleation score entry is “inactive”. For IVSTWG, the amyloid nucleation score result is “inactive”. As to IVSYSGRNRDAHLKSS, the amyloid nucleation score result was “inactive”.

For the substance IVTHSMSSAHINRMNSRQ, the amyloid nucleation score result was “inactive”. As for IVVCAQTLHSLGPRPIEPTQ, the amyloid nucleation score entry is “inactive”. To IVVNR belongs “inactive”. For IVVNT, the amyloid nucleation score entry is “inactive”.

Turning to IVWTVFNALQPLGNALRVSV, the amyloid nucleation score result is “inactive”. As to IVYILRFRTSMLC, the amyloid nucleation score entry was “inactive”.

Take IVYWCLVRNLEKLCCSYFTG: the amyloid nucleation score result is “inactive”. In the case of IWGPTADKSRSVIGSVIKQG, the amyloid nucleation score result was “inactive”. To IWISYRMVSFEASKQSVVL belongs “inactive”.

The record behind these values is the supplement of paper PMC12042874.
